The numbers were not newly measured in publication PMC5855614, which cites them from elsewhere.

This series concerns the target Galectin-3 (Homo sapiens) (UniProt P17931).

Galectin-3 (Homo sapiens), sequence (P17931 2-250): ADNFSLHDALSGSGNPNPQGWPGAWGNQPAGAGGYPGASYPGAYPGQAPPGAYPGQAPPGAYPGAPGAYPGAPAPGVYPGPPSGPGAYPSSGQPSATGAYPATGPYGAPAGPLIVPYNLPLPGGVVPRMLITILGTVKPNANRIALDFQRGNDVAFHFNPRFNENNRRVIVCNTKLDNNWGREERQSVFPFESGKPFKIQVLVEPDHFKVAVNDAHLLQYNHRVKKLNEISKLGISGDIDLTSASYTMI

For the substance G3-C12, the equilibrium dissociation constant (Kd) is 72 nM.
